Data on 4 molecules can be found in PMC4448915 (Structure (London, England : 1993), 2015).

“And” between values parts separate entries of the source, which are not always exact repeats. Identical values can stand only once. Like-named read-outs stand apart in the source and are kept apart here.

The target of assay [1] is T1, ubiquitin (Ub), monomeric, wild type (UniProt P0CG48 1-76). Description: NMR titration.
Assay [2] concerns the target T1, ubiquitin (Ub), monomeric, wild type. Description: NMR titration. This is another data set of the same source.

B1: Ufo1UIMs, Ufo1 fragment of residues 547-668 comprising three UIM motifs (domain or fragment, UniProt Q04511 547-668, looked up)
chain: DEDEQLRRALEESQLIYETQTNSSANHGNNTNDEIDEDDEEFLRAIRQSRVEDERRRHLRNHTTGRRNGPLSDDNFATYGAAESSERTSTENTIGSSVGVDASNNVDEDLQLAIALSLSEIN
As usually defined, the Kd is the concentration at which binding is half-saturated. High values mean lower affinity, low ones higher affinity. In turn, B1 returned a Kd in assay [1] of 237 ± 52 µM.
Turning to TFPEQTIKQLMDLGFPRDAVVKALKQTNGNAEFAASLLFQ (domain or fragment, S. cerevisiae, UniProt P40087 389-428, looked up) [Ddi1UBA, ubiquitin-associated (UBA) domain of Ddi1 from Saccharomyces cerevisiae, residues 389-428], the dissociation constant (Kd) in assay [1] came to 150 ± 16 µM; in assay [2], 291 ± 13 µM.

B2: full-length (FL) Ddi1 protein from Saccharomyces cerevisiae (natural protein, S. cerevisiae, UniProt P40087 1-428, looked up)
chain: MDLTISNELTGEIYGPIEVSEDMALTDLIALLQADCGFDKTKHDLYYNMDILDSNRTQSLKELGLKTDDLLLIRGKISNSIQTDAATLSDEAFIEQFRQELLNNQMLRSQLILQIPGLNDLVNDPLLFRERLGPLILQRRYGGYNTAMNPFGIPQDEYTRLMANPDDPDNKKRIAELLDQQAIDEQLRNAIEYTPEMFTQVPMLYINIEINNYPVKAFVDTGAQTTIMSTRLAKKTGLSRMIDKRFIGEARGVGTGKIIGRIHQAQVKIETQYIPCSFTVLDTDIDVLIGLDMLKRHLACVDLKENVLRIAEVETSFLSEAEIPKSFQEGLPAPTSVTTSSDKPLTPTKTSSTLPPQPGAVPALAPRTGMGPTPTGRSTAGATTATGRTFPEQTIKQLMDLGFPRDAVVKALKQTNGNAEFAASLLFQ
Turning to B2, the binding result in assay [1] is reported as “binds”.

B3: Ddi1UBL, ubiquitin-like (UBL) domain of DNA-damage-inducible 1 protein (Ddi1) from Saccharomyces cerevisiae, residues 2-80 (domain or fragment, S. cerevisiae, UniProt P40087 2-80, looked up)
chain: DLTISNELTGEIYGPIEVSEDMALTDLIALLQADCGFDKTKHDLYYNMDILDSNRTQSLKELGLKTDDLLLIRGKISNS
Broadly, the stoichiometry N is the number of molecules, sites or subunits per partner or assembly. Take B3: the dissociation constant (Kd) is 45 µM and 71 µM in assay [1]; 175 ± 25 µM in assay [2]. Also, in assay [1], the “stoichiometry N” value stood at 1.
